For the assay, the target named is recombinant type 1 inositol 1,4,5-trisphosphate receptor, N-terminally tagged with ECFP (rat) (UniProt P29994). The experiment in a line: SEC; Calibrated Superose 6 10/300 GL gel filtration, the final purification step; 50 mM Tris/HCl, 150 mM NaCl, 1 mM EDTA, 1 mM dithiothreitol, 5% glycerol, 0.02% DDM, pH 8.3; 4 °C; oligomeric size of the purified receptor.

Turning to “recombinant type 1 inositol 1,4,5-trisphosphate receptor, N-terminally tagged with ECFP (from UniProt P29994 1-2750)”, the stoichiometry N (in general, a count of units in the complex or per binding partner) came to 4.

For the origin of these results see paper PMC3685215.
